According to patent US20170326246A1 (INSTITUT PASTEUR, published 2017):
*1 amine or outer side, *2 acyl side, *3 side chain or, on linkers, in order; H or OH if unused. [ ]: non-standard residue; d: D form. U1 = 4-cyclohexylmethoxy-L-phenylalanine, O=C([C@H](Cc1ccc(OCC2CCCCC2)cc1)N[*:1])[*:2]; Bip = N[C@@H](Cc1ccc(-c2ccccc2)cc1)C(=O)O; Tpa = thiopropionic acid

Columns and labels:
Experiment in all cases: cell-based or functional assay
[1] = target: gp120 of viral strain MP568 (CRF02) (HIV, strain MP568 (CRF02))
[2] = target: gp120 of viral strain VI820 (HIV, strain VI820)
[3] = target: gp120 of viral strain IIIB (HIV, strain IIIB)
[4] = target: gp120 of viral strain Ca10-3 (CRF01) (HIV, strain Ca10-3 (CRF01))
[5] = target: gp120 of viral strain pREJO.c/2864 cl2 (HIV, strain pREJO.c/2864 cl2)
[6] = target: gp120 of viral strain p246F10 (HIV, strain p246F10)
[7] = target: gp120 of viral strain SF162 (HIV, strain SF162, UniProt P19550 32-502)
[8] = target: gp120 of viral strain VI824 (HIV, strain VI824)
[9] = target: gp120 of viral strain VI829 (HIV, strain VI829)
gp120 of viral strain MN = gp120 of viral strain MN (HIV, strain MN, UniProt P05877 32-513)
[10] = target: gp120 of viral strain SHIV162p3 (SHIV162p3)
[11] = target: gp120 of viral strain VI1888 (CRF01) (HIV, strain VI1888 (CRF01))
[12] = target: gp120 of viral strain Bal (HIV, strain Bal)

Binder	EC50 (antiviral activity, TZM-bl cells, luciferase) [1] [nM]	EC50 (antiviral activity, TZM-bl cells, luciferase) [2] [nM]	EC50 (antiviral activity, TZM-bl cells, luciferase) [3] [nM]	EC50 (antiviral activity, TZM-bl cells, luciferase) [4] [nM]	EC50 (antiviral activity, TZM-bl cells, luciferase) [5] [nM]	EC50 (antiviral activity, TZM-bl cells, luciferase) [6] [nM]	EC50 (antiviral activity, TZM-bl cells, luciferase) [7] [nM]	EC50 (antiviral activity, TZM-bl cells, luciferase) [8] [nM]	EC50 (antiviral activity, TZM-bl cells, luciferase) [9] [nM]	EC50 (antiviral activity, TZM-bl cells, luciferase) (gp120 of viral strain MN) [nM]	EC50 (antiviral activity, TZM-bl cells, luciferase) [10] [nM]	EC50 (antiviral activity, TZM-bl cells, luciferase) [11] [nM]	EC50 (antiviral activity, TZM-bl cells, luciferase) [12] [nM]
mCD4.1-PS1 (N-terminal gamma-aminobutyric acid (gammaAbu) acylated with 3-thiopropionyl (from SATP); all six Tyr are sulfotyrosine (YSO3); N-terminal Tpa (thiopropionic acid); Bip at position 23; C-terminal …; Lys5 N-epsilon carries the PEO2-maleimide linker bound to the thiol of the PS1 chain) peptide 1: NLHKCQLRCSSLGLLGRCAGSFCACV peptide 2: SYDYSYDYSYDYS	310	25	0.013	0.57	0.66	723	0.11	40	16	0.08	36	1100	0.54
M48U1-PS1 (not fully specified; N-terminal gamma-aminobutyric acid (gammaAbu) acylated with 3-thiopropionyl (from SATP); all six Tyr are sulfotyrosine (YSO3); N-terminal Tpa; D-proline at position 21; U1 (4-cyclohexylmethoxy-L-phenylalanine) at position 23; C-terminal amide; Lys11 N-epsilon carries the PEO2-maleimide linker bound to the thiol of the PS1 chain) peptide 1: NLHFCQLRCKSLGLLGRCAPTFCACV peptide 2: SYDYSYDYSYDYS	15	0.1	0.02	0.6			0.05	2.2	1.1	0.12	3.4	1070	0.13
mCD4.2-PS1 (not fully specified; N-terminal gamma-aminobutyric acid (gammaAbu) acylated with 3-thiopropionyl (from SATP); all six Tyr are sulfotyrosine (YSO3); N-terminal Tpa; D-proline at position 21; U1 (4-cyclohexylmethoxy-L-phenylalanine) at position 23; C-terminal amide; Lys5 N-epsilon carries the PEO2-maleimide linker bound to the thiol of the PS1 chain) peptide 1: NLHKCQLRCSSLGLLGRCAPTFCACV peptide 2: SYDYSYDYSYDYS	4.9	0.031	0.007	0.12	0.27	58	0.01	0.68	4	0.046	2.2	1060	0.034
Tpa-NLHKCQLRCRSLGLLGRCA[dP]T[U1]CACV-NH2 (disulfide (positions not given here)) [mCD4.3]	204	4.2	0.16	3.1	46	510	0.66	39	221	0.37	29	8020	2.3
Tpa-NLHKCQLRCSSLGLLGRCA[dP]T[U1]CACV-NH2 (disulfide (positions not given here)) [mCD4.2]	155	6.1	0.22	4.73	76	718	1.24	56	512	0.6	69	9760	2
mCD4.3-PS1 (not fully specified; N-terminal gamma-aminobutyric acid (gammaAbu) acylated with 3-thiopropionyl (from SATP); all six Tyr are sulfotyrosine (YSO3); N-terminal Tpa; D-proline at position 21; U1 (4-cyclohexylmethoxy-L-phenylalanine) at position 23; C-terminal amide; Lys5 N-epsilon carries the PEO2-maleimide linker bound to the thiol of the PS1 chain) peptide 1: NLHKCQLRCRSLGLLGRCAPTFCACV peptide 2: SYDYSYDYSYDYS	4.2	0.024	0.0025	0.076	0.28	33	0.008	0.7	3.6	0.026	1.4	1210	0.031
Tpa-NLHKCQLRCSSLGLLGRCAGS[Bip]CACV-NH2 (disulfide (positions not given here); also: three disulphide bridges, pairing not given here) [mCD4.1]	7930	1690	29	96	108	> 10000	130	3180	> 10000	20	5370	> 1000	236
Tpa-NLHFCQLRCKSLGLLGRCA[dP]T[U1]CACV-NH2 (disulfide (positions not given here)) [M48U1]	129	3.8	0.08	2.7			1	29	59	0.25	24	8420	0.96
